Assay results taken from PMC9915583 (bioRxiv, 2023).

T1: His-SUMO-FtsZ (C. glutamicum, UniProt P94337 1-442)
T1 sequence: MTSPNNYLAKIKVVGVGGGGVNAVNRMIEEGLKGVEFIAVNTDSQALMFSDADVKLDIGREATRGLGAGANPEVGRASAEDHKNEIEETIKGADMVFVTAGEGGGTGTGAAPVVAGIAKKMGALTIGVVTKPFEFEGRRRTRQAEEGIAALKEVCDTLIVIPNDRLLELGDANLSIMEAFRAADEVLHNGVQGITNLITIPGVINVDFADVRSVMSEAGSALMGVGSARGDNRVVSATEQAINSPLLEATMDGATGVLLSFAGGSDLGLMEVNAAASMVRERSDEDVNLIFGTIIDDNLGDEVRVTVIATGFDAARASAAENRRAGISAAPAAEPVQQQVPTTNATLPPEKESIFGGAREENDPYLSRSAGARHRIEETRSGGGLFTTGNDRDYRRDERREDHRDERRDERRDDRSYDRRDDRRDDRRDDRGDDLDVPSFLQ

B1: GLP (recombinant, full-length, untagged) (natural protein)
chain: MRSVEQQLSIVTEAAVAPEPVRIAIAEALGLMCAEEVQASRALPGFAQAAIDGYAVRAVDVGGEKSLSQQLPVAPPEKSLPVVGEVAAGSQQPLRLQPKQAVMVHTGAPLPMLADAVLPMAWSDRGRKRVTAQRPVRSGEFVRKEGDDIQPGDIAVSAGAVLGPAQIGLLAAVGRSKVLVYPRPRMSVISVGAELVDIDRQPGLGQVYDVNSYSLAAAGREAGADVYRYGIAAGEPRRIKEIIESQMLRSEIIVITGAVGGAGSAGVRQVLNELGDIDTERVAMHPGSVQGFGLLGENKIPCFLLPSNPVASLVIFETFVRPVVRMSLGKSNAARRVVRARALNHVVSVAGRKGFIRSRLMRDAETQDYLVEALGGATGAPSHLLAGLSEANGMIRIPEDVTEIRPGDVVDVIFLAQGR
B2: GLPR, C-terminal His-tagged (receptor)
chain: MLHVSGILVIGLIVVVWLVVLAPLLLRGQKPIAKAGEAFDDTRVISEGGSNIPSPRRPGLSSAQLDDEEDTDDVDDDYEIVDSPSIFRPRKEEPVEEDLDTDVELEEDIEVSLETDDYVEPAPVVEVSQEWNVEDHYELDDSYDTPLDHLHPAARARAYEDFQEHQPEQQPEVEEFDADDELTEEDVAFAQRRRGRGYYDPEADREFAASQYVRRQRTLLGLAATVVISVILGFVFGGWVWGLPAVALAATALYLMALRSQVREENALRARRIRRLRRSRMGVRNSEDLPSRLRRPGAVVLELDDESPDFEGLPTVAMPEEPYYEEPRRNIRHLGQRRVS

Columns and labels:
[1] = target: Biotinylated His-GLPR (C. glutamicum ATCC 13032); experiment: BLI
[2] = target: T1, His-SUMO-FtsZ; experiment: BLI
[3] = target: the molecule itself; experiment: crystal structure
[4] = target: B1; experiment: BLI

Molecule: Wag31_(1–61) (N-terminal DivIVA domain of Wag31) (domain or fragment)
- Kd [1]: 14.9 µM

Molecule: Wag31 (recombinant, full-length) (natural protein)
- Kd [1]: 43.4 µM

Molecule: B1
- Kd [2]: 4.7 µM
- stoichiometry N [3]: 2

Molecule: B2
- Kd [4]: 0.0055 µM
